Drawing on patent US20240116985A1, “STAPLED PEPTIDES AND METHODS THEREOF” (priority 2020, published 2024), this text covers IC50 for 25 molecules.

Starred links: 1 amine or outer side, 2 acyl side, 3 side chain; linkers in the order of their positions; H or OH if unused. Positions of bridges follow the written chain, without caps; N, C: chain ends. Non-standard residues stand in square brackets, D forms with d. Primed or numbered codes have the meaning given here. *: point of attachment. (SO2MorphCH2)TriAzDap = (S)-2-amino-3-(4-((1,1-dioxidothiomorpholino)methyl)-1H-1,2,3-triazol-1-yl)propanoic acid, O=C([C@H](Cn1cc(CN2CCS(=O)(=O)CC2)nn1)N[*:1])[*:2]; (CH2Ppz)TriAzDap = (S)-2-amino-3-(4-(piperazin-1-ylmethyl)-1H-1,2,3-triazol-1-yl)propanoic acid, O=C([C@H](Cn1cc(CN2CCN([*:3])CC2)nn1)N[*:1])[*:2]; PyrS2(3) = (S)-3-amino-1-((pent-4-en-1-yloxy)carbonyl)pyrrolidine-3-carboxylic acid, stapling residue, C=CCCCOC(=O)N1CC[C@@](N[*:1])(C(=O)[*:2])C1; PyrS2″ = (S)-3-amino-1-((pent-4-en-1-yloxy)carbonyl)pyrrolidine-3-carboxylic acid (stapling residue), C=CCCCOC(=O)N1CC[C@@](N[*:1])(C(=O)[*:2])C1; (CH2NMe2)TriAzDap = (S)-2-amino-3-(4-((dimethylamino)methyl)-1H-1,2,3-triazol-1-yl)propanoic acid, CN(C)Cc1cn(C[C@H](N[*:1])C(=O)[*:2])nn1; (MorphCH2)TriAzDap = (S)-2-amino-3-(4-(morpholinomethyl)-1H-1,2,3-triazol-1-yl)propanoic acid, O=C([C@H](Cn1cc(CN2CCOCC2)nn1)N[*:1])[*:2]; B5(18) = 2,2-bis(4-pentenyl)glycine (2-amino-2-(pent-4-en-1-yl)hept-6-enoic acid), stitching residue, C=CCCCC(CCCC=C)(N[*:1])C(=O)[*:2]; B5(4) = 2,2-bis(4-pentenyl)glycine = 2-amino-2-(pent-4-en-1-yl)hept-6-enoic acid (stitching residue), C=CCCCC(CCCC=C)(N[*:1])C(=O)[*:2]; B5(5) = 2,2-bis(4-pentenyl)glycine, 2-amino-2-(pent-4-en-1-yl)hept-6-enoic acid (stitching residue), C=CCCCC(CCCC=C)(N[*:1])C(=O)[*:2]; TfeGA = (S)-2-amino-3-((carboxymethyl)(2,2,2-trifluoroethyl)amino)propanoic acid, O=C([C@H](CN(CC(=O)[*:3])CC(F)(F)F)N[*:1])[*:2]; PyrS2 = (S)-3-amino-1-((pent-4-en-1-yloxy)carbonyl)pyrrolidine-3-carboxylic acid, C=CCCCOC(=O)N1CC[C@@](N[*:1])(C(=O)[*:2])C1; B5(19) = 2-amino-2-(pent-4-en-1-yl)hept-6-enoic acid (bis(4-pentenyl)glycine), C=CCCCC(CCCC=C)(N[*:1])C(=O)[*:2]; B5(3) = 2,2-bis(4-pentenyl)glycine (stitching residue), C=CCCCC(CCCC=C)(N[*:1])C(=O)[*:2]; Phe(F5) = N[C@@H](Cc1c(F)c(F)c(F)c(F)c1F)C(=O)O; Phe(3-COOH) = N[C@@H](Cc1cccc(C(=O)O)c1)C(=O)O; Phe(2-CF3) = N[C@@H](Cc1ccccc1C(F)(F)F)C(=O)O; Phe(2-Cl) = N[C@@H](Cc1ccccc1Cl)C(=O)O; Bta = N[C@@H](Cc1csc2ccccc12)C(=O)O; Isobutyloxycarbonyl = CC(C)COC(=O)*; αAllylPro = C=CC[C@@]1(C(=O)O)CCCN1; tBuAla = CC(C)(C)C[C@H](N)C(=O)O; 3Thi = N[C@@H](Cc1ccsc1)C(=O)O; Butoxycarbonyl = CCCCOC(=O)*; 4ClBztA = not defined here; hSer = N[C@@H](CCO)C(=O)O; Ac5c = NC1(C(=O)O)CCCC1; Ac3c = NC1(C(=O)O)CC1; Moc = COC(=O)*

First the molecules themselves.
B1: I-1850 (peptide)
peptide: Ac-[αAllylPro]D[tBuAla][B5(18)]D[Phe(3-COOH)]AAFV[PyrS2(3)][Phe(2-Cl)][Bta]S-NH2
modifications: staple 1-4, 4-11
B2: I-1858 (peptide)
peptide: Ac-[αAllylPro]D[tBuAla][B5(5)]D[TfeGA]AA[(MorphCH2)TriAzDap]L[PyrS2″][3Thi][Bta]Q-NH2
modifications: staple 1-4, 4-11; also: separately listed staple isomer composition
B3: I-1851 (peptide)
peptide: Ac-[αAllylPro]D[tBuAla][B5(18)]D[Phe(3-COOH)]AAFL[PyrS2(3)][Phe(2-Cl)][Bta]A-NH2
modifications: staple 1-4, 4-11
B4: I-1853 (peptide)
peptide: Ac-[αAllylPro]N[tBuAla][B5(18)]D[Phe(3-COOH)]AAFL[PyrS2(3)][Phe(2-Cl)][Bta]S-NH2
modifications: staple 1-4, 4-11
B5: I-2489 (peptide)
peptide: Ac-[αAllylPro]D[tBuAla][B5(4)]D[Phe(3-COOH)]QAFL[PyrS2″][Phe(2-CF3)][7FBztA]A-NH2
modifications: staple 1-4, 4-11
B6: I-1855 (peptide)
peptide: Ac-[αAllylPro]D[tBuAla][B5(5)]D[TfeGA]AA[(CH2NMe2)TriAzDap]L[PyrS2″][3Thi][Bta]Q-NH2
modifications: staple 1-4, 4-11; also: separately listed staple isomer composition
B7: I-2493 (peptide)
peptide: Ac-[αAllylPro]D[tBuAla][B5(4)]NT[Ac5c]AFN[PyrS2″][3Thi][Bta]Q-NH2
modifications: staple 1-4, 4-11
B8: I-1859 (peptide)
peptide: Ac-[αAllylPro]D[tBuAla][B5(5)]D[TfeGA]AA[(MorphCH2)TriAzDap]L[PyrS2″][3Thi][Bta]Q-NH2
modifications: staple 1-4, 4-11; also: separately listed staple isomer composition
B9: I-1860 (peptide)
peptide: Ac-[αAllylPro]D[tBuAla][B5(5)]D[TfeGA]AA[(SO2MorphCH2)TriAzDap]L[PyrS2″][3Thi][Bta]Q-NH2
modifications: staple 1-4, 4-11
B10: I-1857 (peptide)
peptide: Ac-[αAllylPro]D[tBuAla][B5(5)]D[TfeGA]AA[(CH2Ppz)TriAzDap]L[PyrS2″][3Thi][Bta]Q-NH2
modifications: staple 1-4, 4-11; also: separately listed staple isomer composition
B11: I-2491 (peptide)
peptide: Ac-[αAllylPro]D[tBuAla][B5(4)]D[Phe(3-COOH)]QAFL[PyrS2″][Phe(2-CF3)][4ClBztA]A-NH2
modifications: staple 1-4, 4-11; reading uncertain
B12: I-1852 (peptide)
peptide: Ac-[αAllylPro]D[tBuAla][B5(18)]D[Phe(3-COOH)]AAFL[PyrS2(3)][Phe(2-Cl)][Bta]-NH2
modifications: staple 1-4, 4-11
B13: I-2487 (peptide)
peptide: Ac-[αAllylPro]D[tBuAla][B5(4)]D[Phe(3-COOH)]QAFL[PyrS2″][Phe(2-CF3)][7ClBztA]A-NH2
modifications: staple 1-4, 4-11
B14: I-2492 (peptide)
peptide: Ac-[αAllylPro]D[tBuAla][B5(4)]NT[Ac3c]AFN[PyrS2″][3Thi][Bta]Q-NH2
modifications: staple 1-4, 4-11
B15: I-1849 (peptide)
peptide: Ac-[αAllylPro]D[tBuAla][B5(18)]D[Phe(3-COOH)]AAFA[PyrS2(3)][Phe(2-Cl)][Bta]S-NH2
modifications: staple 1-4, 4-11
B16: I-2377 (peptide)
peptide: {3‑(allyloxy)benzoyl}-PD[tBuAla][B5(5)]D[TfeGA]AAFL[PyrS2″][3Thi][Bta]Q-NH2
modifications: staple 4-11, N-4; also: -CH=CH- in each staple reduced to -CH2-CH2-
B17: I-2364 (peptide)
peptide: Isobutyloxycarbonyl-[αAllylPro]D[tBuAla][B5(4)]DDAAFQ[PyrS2″][3Thi][Bta]H-NH2
modifications: staple 1-4, 4-11
B18: I-2362 (peptide)
peptide: Moc-[αAllylPro]D[tBuAla][B5(4)]DDAAFQ[PyrS2″][3Thi][Bta]H-NH2
modifications: staple 1-4, 4-11
B19: I-1794 (peptide)
peptide: Ac-[αAllylPro]D[tBuAla][B5(3)]DHAAF[hSer][PyrS2″][3Thi][Bta]Q-NH2
modifications: staple 1-4, 4-11; not fully specified; printed as Ac-PL3-Asp-Npg-B5-Asp-His-Ala-Ala-Phe-Hse-PyrS2-3Thi-BztA-Gln-NH2
B20: I-1788 (peptide)
peptide: Ac-[αAllylPro]D[tBuAla][B5(19)]DWAAFN[PyrS2][3Thi][Bta]Q-NH2
modifications: staple 1-4, 4-11
B21: I-2363 (peptide)
peptide: Butoxycarbonyl-[αAllylPro]D[tBuAla][B5(4)]DDAAFQ[PyrS2″][3Thi][Bta]H-NH2
modifications: staple 1-4, 4-11
B22: I-1789 (peptide)
peptide: Ac-[αAllylPro]D[tBuAla][B5(19)]DWAAF[hSer][PyrS2][3Thi][Bta]Q-NH2
modifications: staple 1-4, 4-11
B23: I-1792 (peptide)
peptide: Ac-[αAllylPro]D[tBuAla][B5(19)]D[Phe(F5)]AAFL[PyrS2][3Thi][Bta]Q-NH2
modifications: staple 1-4, 4-11
B24: I-1793 (peptide)
peptide: Ac-[αAllylPro]D[tBuAla][B5(19)]DHAAF[hSer][PyrS2][3Thi][Bta]Q-NH2
modifications: staple 1-4, 4-11; not fully specified; printed as Ac-PL3-Asp-Npg-B5-Asp-His-Ala-Ala-Phe-Hse-PyrS2-3Thi-BztA-Gln-NH2
B25: I-1791 (peptide)
peptide: Ac-[αAllylPro]D[tBuAla][B5(19)]D[Phe(F5)]AAF[hSer][PyrS2][3Thi][Bta]Q-NH2
modifications: staple 1-4, 4-11

The target in one assay is full-length beta-Catenin (Uniprot ID P35222) (Homo sapiens (Human)) (UniProt P35222). In words: fluorescence polarization competition; 10 nM full-length beta-catenin, competitor 10 nM 5FAM-TCF4(10-53). For orientation: Polarisation of emitted light reports the rotation of a fluorescent probe.
full-length beta-Catenin (Uniprot ID P35222) (Homo sapiens (Human)), sequence (P35222 whole entry): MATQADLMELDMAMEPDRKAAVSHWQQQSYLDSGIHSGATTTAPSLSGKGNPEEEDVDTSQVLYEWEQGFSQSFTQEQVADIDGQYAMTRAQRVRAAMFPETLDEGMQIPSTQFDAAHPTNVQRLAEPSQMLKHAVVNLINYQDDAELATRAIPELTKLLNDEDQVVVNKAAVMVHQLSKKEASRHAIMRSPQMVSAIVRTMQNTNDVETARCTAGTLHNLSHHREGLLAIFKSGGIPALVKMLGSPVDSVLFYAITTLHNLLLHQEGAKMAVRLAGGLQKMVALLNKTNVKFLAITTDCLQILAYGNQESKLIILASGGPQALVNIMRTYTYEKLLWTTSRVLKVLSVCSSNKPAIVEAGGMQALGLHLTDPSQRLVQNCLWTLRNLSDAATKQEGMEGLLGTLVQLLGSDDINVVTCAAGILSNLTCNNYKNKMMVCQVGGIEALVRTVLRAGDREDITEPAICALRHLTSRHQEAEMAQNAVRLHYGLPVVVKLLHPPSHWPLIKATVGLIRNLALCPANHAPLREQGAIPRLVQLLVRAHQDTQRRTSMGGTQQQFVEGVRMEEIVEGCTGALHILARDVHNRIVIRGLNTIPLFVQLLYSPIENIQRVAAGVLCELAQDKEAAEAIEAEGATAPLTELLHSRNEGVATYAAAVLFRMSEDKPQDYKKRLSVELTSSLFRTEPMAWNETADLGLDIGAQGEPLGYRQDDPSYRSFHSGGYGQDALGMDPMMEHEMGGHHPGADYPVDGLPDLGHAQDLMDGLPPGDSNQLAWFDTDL
In the case of B1, the half-inhibitory concentration (IC50) (commonly the point on the concentration scale where inhibition reaches its midpoint) is 17 nM.
In the case of B2, the concentration for half-maximal inhibition (IC50) came out at 1110 nM.
The same measure, in the same setting: for B3 the value was 25 nM; for B4, 114 nM; for B5, 29 nM.
Still for that read-out and setting: for B6 the value was 849 nM; for B7, 267 nM; for B8, 1110 nM.
On the same count and under the same terms, to B9 belongs 512 nM; to B10, 4020 nM; to B11, 49 nM.
For the molecule B12, the half-inhibitory concentration (IC50) was found to be 48 nM.
Still for that read-out and setting: to B13 belongs 36 nM.
B14 registered a 50% inhibitory concentration (IC50) of 174 nM.
B15: the IC50 is 19 nM.

Another assay shares this target. In words: fluorescence polarization competition against 5FAM-TCF4 10-53 on full-length beta-catenin.
Molecule B16 yielded a half-maximal inhibitory concentration (IC50) of 978 nM.
Same read-out and setting: for B17 the value was 116 nM; for B18, 66 nM; for B19, 52 nM.
Same read-out and setting: to B20 belongs 58 nM; to B21, 44 nM.
The same measure, in the same setting: to B22 belongs 183 nM; to B23, 935 nM.
For B24, the 50% inhibitory concentration (IC50) turned out to be 20 nM.
Still for that read-out and setting: for B25 the value was 182 nM.
